Read-outs that look alike come from different tables or passages of the source. Where a SMILES comes first, the peptide text is derived from it. [ ]: non-standard residue; d: D form. The star is where a group is joined. 5FAM = O=C1OC2(c3ccc(O)cc3Oc3cc(O)ccc32)c2ccc(C(=O)*)cc21; hSer = N[C@@H](CCO)C(=O)O; Nva = CCC[C@H](N)C(=O)O; Abu = CC[C@H](N)C(=O)O; βAla = NCCC(=O)O

Broadly, the Kd is a measure of binding affinity in units of concentration.

One assay has as its target T1, porcine calpain-1 (Sus scrofa, UniProt P04574).
T1 construct: GST (N, cleaved yes); made in house; host or cells: E. coli (pET41b vector)
T1 sequence (P04574 94-266 limits assumed): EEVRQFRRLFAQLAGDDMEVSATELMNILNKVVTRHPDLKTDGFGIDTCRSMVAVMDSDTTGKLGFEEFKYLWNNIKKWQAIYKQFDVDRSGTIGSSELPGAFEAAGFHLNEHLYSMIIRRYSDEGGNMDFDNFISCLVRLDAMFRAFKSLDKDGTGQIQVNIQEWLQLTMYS
Nature of the assay: Fluorescence polarization binding assay of labelled calpastatin peptides with purified calpain. As to conditions: calpain titrated into 500 nM labelled peptide; 50 mM NaP, 50 mM NaCl, 5 mM BME, 1 mM CaCl2, 1 mM EDTA, pH 8.0; room temperature; 3 polarization readings averaged per concentration; single state binding model; read-out: Experimental KD. Here is the method: Calpain was expressed as a GST-fusion protein in E. coli that had been transfected with a pet41b vector that contained the gene encoding porcine calpain-1. The cells were grown in Luria-Bertani broth with 50 ug/ml kanamycin at 37 degrees Celsius to an OD600 of 0.6 at which point 1 mM isopropyl β-D-1-thiogalactopyranoside (IPTG) was added to induce expression. Cells were grown for an additional 4 hours and harvested by centrifugation. Cells were resuspended in a buffer containing 50 mM NaPO4, 150 mM NaCl, 5 mM BME at pH 8.0 and lysed by sonication. Lysate was centrifuged at 12500 g for 30 minutes and the supernatant was run over a GSTrap-FF column that had been equilibrated with the lysis buffer. After loading, the column was washed with 10 column volumes of the lysis buffer before the GST-calpain was eluted with 50 mM Tris and 10 mM reduced glutithione, pH 8.0. The eluent was monitored by absorbance at 280 nm.5 mL fractions were collected. Those fractions which absorbed at 280 nm were pooled. Thrombin was added to separate the calpain from the GST and the cleavage reaction was allowed to cleave overnight at 4 Celsius. To remove the GST the protein was further purified with a Sephacryl S-200 gel filtration column using a buffer containing 50 mM NaPO4, 50 mM NaCl, 5 mM BME, 1 mM CaCl2, 1 mM EDTA at pH 8.0. The protein was concentrated through centrifugation via a spin column with a 15 K molecular weight cutoff and found to be pure and ran true to predicted size on SDS-PAGE gels.
Purified calpain was manually titrated in to a solution containing 500 nM calpastatin with 50 mM NaP, 50 mM NaCl, 5 mM BME, 1 mM CaCl2, 1 mM EDTA at pH 8.0, till the change in fluorescence polarization reached a plateau. Binding assays were performed at room temperature, 3 polarization readings were averaged for each concentration. Disassociation constants were calculated by fitting the data to a single state binding model using Sigma plot software.
For orientation: Fluorescence polarisation rises when a labelled molecule tumbles more slowly, as on binding a larger partner.

Assay [1] concerns the target T2, calpastatin peptide Ser607 to norvaline (5FAM–βALA–PDDAIDAL(NVL)DDFTS-amide).
T2 chain: PDDAIDALXDDFTS
As to the kind of experiment: fluorescence polarisation; purified calpain manually titrated into 500 nM labelled calpastatin peptide; 50 mM NaP, 50 mM NaCl, 5 mM BME, 1 mM CaCl2, 1 mM EDTA, pH 8.0; room temperature; single state binding model.

Assay [2] deals with T3, calpastatin peptide Ser607 to amino butyric acid (5FAM–βALA–PDDAIDAL(ABU)DDFTS-amide).
T3 chain: PDDAIDALXDDFTS
The description is as above.

Assay [3] addresses T4, wild type calpastatin subdomain C peptide, 5FAM-labelled (5FAM–βALA–…-amide).
T4 chain: PDDAIDALSDDFTS
The description is as above.

In assay [4] the target is T5, calpastatin peptide Asp609 to 1-methyl-histidine (5FAM–βALA–…(1MH)FTS-amide).
T5 chain: PDDAIDALSDHFTS
The assay is described as above.

In assay [5] the target is T6, calpastatin peptide Asp609 to homoserine (5FAM–βALA–…(HSE)–FTS-amide).
T6 chain: PDDAIDALSDXFTS
The description is as above.

Assay [6] concerns the target T7, calpastatin peptide Phe610 to 4-methyl-phenylalanine (FITC–βALA–…(4MF)TS-amide).
T7 chain: PDDAIDALSDDFTS
Described as above.

Assay [7] deals with T8, wild type calpastatin subdomain C peptide, FITC-labelled (FITC–βALA–…-amide).
T8 chain: PDDAIDALSDDFTS
The assay is described as above.

Assay [8] concerns the target T8, wild type calpastatin subdomain C …. The assay is described as above.

In the case of `CCC[C@H](NC(=O)[C@H](CC(C)C)NC(=O)[C@H](C)NC(=O)[C@H](CC(=O)O)NC(=O)[C@@H](NC(=O)[C@H](C)NC(=O)[C@H](CC(=O)O)NC(=O)[C@H](CC(=O)O)NC(=O)[C@@H]1CCCN1C(=O)CCNC(=O)c1ccc2c(c1)C(=O)OC21c2ccc(O)cc2Oc2cc(O)ccc21)[C@@H](C)CC)C(=O)N[C@@H](CC(=O)O)C(=O)N[C@@H](CC(=O)O)C(=O)N[C@@H](Cc1ccccc1)C(=O)N[C@H](C(=O)N[C@@H](CO)C(N)=O)[C@@H](C)O` [NVL (5FAM)] ({5FAM-βAla}-PDDAIDAL[Nva]DDFTS-NH2), the Kd on porcine calpain-1 came to 8.56 ± 0.95 µM.
For the molecule `CC[C@H](NC(=O)[C@H](CC(C)C)NC(=O)[C@H](C)NC(=O)[C@H](CC(=O)O)NC(=O)[C@@H](NC(=O)[C@H](C)NC(=O)[C@H](CC(=O)O)NC(=O)[C@H](CC(=O)O)NC(=O)[C@@H]1CCCN1C(=O)CCNC(=O)c1ccc2c(c1)C(=O)OC21c2ccc(O)cc2Oc2cc(O)ccc21)[C@@H](C)CC)C(=O)N[C@@H](CC(=O)O)C(=O)N[C@@H](CC(=O)O)C(=O)N[C@@H](Cc1ccccc1)C(=O)N[C@H](C(=O)N[C@@H](CO)C(N)=O)[C@@H](C)O` [ABU (5FAM)] ({5FAM-βAla}-PDDAIDAL[Abu]DDFTS-NH2), at porcine calpain-1, the Kd worked out at 5.8 ± 1.2 µM.
The same measure, in the same setting: as for `CC[C@H](C)[C@H](NC(=O)[C@H](C)NC(=O)[C@H](CC(=O)O)NC(=O)[C@H](CC(=O)O)NC(=O)[C@@H]1CCCN1C(=O)CCNC(=O)c1ccc2c(c1)C(=O)OC21c2ccc(O)cc2Oc2cc(O)ccc21)C(=O)N[C@@H](CC(=O)O)C(=O)N[C@@H](C)C(=O)N[C@@H](CC(C)C)C(=O)N[C@@H](CO)C(=O)N[C@@H](CC(=O)O)C(=O)N[C@@H](CC(=O)O)C(=O)N[C@@H](Cc1ccccc1)C(=O)N[C@H](C(=O)N[C@@H](CO)C(N)=O)[C@@H](C)O` [WT (5FAM), reference compound] ({5FAM-βAla}-PDDAIDALSDDFTS-NH2), the figure is 6.6 ± 0.65 µM; as for `CC[C@H](C)[C@H](NC(=O)[C@H](C)NC(=O)[C@H](CC(=O)O)NC(=O)[C@H](CC(=O)O)NC(=O)[C@@H]1CCCN1C(=O)CCNC(=O)c1ccc2c(c1)C(=O)OC21c2ccc(O)cc2Oc2cc(O)ccc21)C(=O)N[C@@H](CC(=O)O)C(=O)N[C@@H](C)C(=O)N[C@@H](CC(C)C)C(=O)N[C@@H](CO)C(=O)N[C@@H](CC(=O)O)C(=O)N[C@@H](CCO)C(=O)N[C@@H](Cc1ccccc1)C(=O)N[C@H](C(=O)N[C@@H](CO)C(N)=O)[C@@H](C)O` [HSE (5FAM)] ({5FAM-βAla}-PDDAIDALSD[hSer]FTS-NH2), 7.48 ± 0.68 µM.

B1: porcine calpain-1 (enzyme)
chain: T1 sequence (P04574 94-266 limits assumed)
modifications: not checked
For the molecule B1, the Kd in assay [1] came to 8.56 µM; in assay [2], 5.8 µM; in [3], 6.6 µM; in [4], 5.81 µM; in assay [5], 7.48 µM; in assay [6] it was 2.6 µM. The results for the Kd in assay [7] and in [8] were 5.77 µM and 5800 µM, respectively.

The record behind these values is article PMC3303795, “Incorporation of Noncanonical Amino Acids into Rosetta and Use in Computational Protein-Peptide Interface Design” (PLoS ONE, 2012).
